Molecular target: T1, Vam3p (vacuolar Qa-SNARE), on 3Q-SNARE proteoliposomes (S. cerevisiae, UniProt Q12241 1-283)
T1 construct: Vam3p, vacuolar Qa-SNARE of Saccharomyces cerevisiae; Bait of the co-immunoprecipitation (anti-Vam3p antibody); In every experiment Vam3p stood on the same proteoliposomes as the Qb-SNARE Vti1p and the Qc-SNARE Vam7p (3Q-RPLs); Constructs are in cited work; also called 3Q-RPLs; 3Q-SNAREs
T1 sequence (looked up): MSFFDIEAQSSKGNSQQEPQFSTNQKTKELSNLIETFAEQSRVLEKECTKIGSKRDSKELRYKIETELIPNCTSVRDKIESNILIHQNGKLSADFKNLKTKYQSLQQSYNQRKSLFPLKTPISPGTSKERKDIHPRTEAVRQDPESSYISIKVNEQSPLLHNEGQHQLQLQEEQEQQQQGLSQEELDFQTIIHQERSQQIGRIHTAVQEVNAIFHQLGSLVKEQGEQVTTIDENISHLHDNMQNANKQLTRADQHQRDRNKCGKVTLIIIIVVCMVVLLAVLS
Assay: co-IP; 1R-RPLs, or soluble Nyv1p at 100 nM, with 3Q-RPLs (Vam3p, Vti1p, Vam7p); 40 µl reaction 40 min at 27°C with HOPS (100 nM) or its buffer; diluted 10-fold in RIPA buffer with affinity-purified anti-Vam3p antibody (50 µg/ml) and 10 µM GST-Nyv1p; protein A magnetic beads, 2 hr room temperature; immunoblot with anti-Nyv1p
Conditions: both partners purified

B1: Nyv1p (vacuolar R-SNARE), membrane-anchored, on R-SNARE proteoliposomes (natural protein, S. cerevisiae, UniProt Q12255 1-253, looked up)
chain: MKRFNVSYVEVIKNGETISSCFQPFQKNENYGTITSANEQITPVIFHNLIMDMVLPKVVPIKGNKVTKMSMNLIDGFDCFYSTDDHDPKTVYVCFTLVDMPKILPIRILSGLQEYESNATNELLSSHVGQILDSFHEELVEYRNQTLNSSGNGQSSNGNGQNTISDIGDATEDQIKDVIQIMNDNIDKFLERQERVSLLVDKTSQLNSSSNKFRRKAVNIKEIMWWQKVKNITLLTFTIILFVSAAFMFFYLW
notes: Nyv1p, vacuolar R-SNARE of Saccharomyces cerevisiae, membrane-anchored form; Schwartz and Merz, 2009; Zucchi and Zick, 2011 for the SNARE constructs; Exchanged into octylglucoside buffer before reconstitution; also called wild-type Nyv1p; 1R; source: pure recombinant protein, purified as described (cited work), reconstituted into proteoliposomes by detergent dialysis
B1: binds.

B2: Soluble Nyv1p (sR), Nyv1(Δtm), Nyv1p(1-231) (domain or fragment, S. cerevisiae, UniProt Q12255 1-231, looked up)
chain: MKRFNVSYVEVIKNGETISSCFQPFQKNENYGTITSANEQITPVIFHNLIMDMVLPKVVPIKGNKVTKMSMNLIDGFDCFYSTDDHDPKTVYVCFTLVDMPKILPIRILSGLQEYESNATNELLSSHVGQILDSFHEELVEYRNQTLNSSGNGQSSNGNGQNTISDIGDATEDQIKDVIQIMNDNIDKFLERQERVSLLVDKTSQLNSSSNKFRRKAVNIKEIMWWQKVKN
notes: Nyv1p of Saccharomyces cerevisiae without its transmembrane anchor (Δtm); the methods name only Nyv1(Δtm); also called sNyv1p; recombinant soluble domain of Nyv1p; source: purified as GST-TEVsite-Nyv1(Δtm) as described (Thorngren et al., 2004), cleaved with TEV protease prior to use; not shown: GST, N-terminal, cleaved
B2: binds.

Reference: publication PMC4200421, “A distinct tethering step is vital for vacuole membrane fusion” (eLife, 2014)
